The results in this text go back to PMC4748814.

Where a chain is given by its changes, count along the chain named.

Data set [1] deals with PNPase. The data set can be described thus: BLI. Conditions: EMSA: 20 mM Tris pH 7.5, 100 mM NaCl, 1 mM MgCl2, 1 mM DTT, 30 C, 0.2 uM RNA; BLI: same buffer + 1 mg/mL acetylated BSA; ITC: 20 mM Tris-HCl pH 7.5, 1 mM ….
The subject of data set [2] is PNPase S437-9A (active site mutant). The data set can be described thus: BLI. Conditions: EMSA: 20 mM Tris pH 7.5, 100 mM NaCl, 1 mM MgCl2, 1 mM DTT, 30 C, 0.2 uM RNA; BLI: same buffer + 1 mg/mL acetylated BSA; ITC: 20 mM Tris-HCl pH 7.5, 1 mM …. For orientation: In EMSA bound probe runs differently from free probe, usually more slowly.
Data set [3] has as its target T1, PNPase (UniProt P05055).
T1 sequence: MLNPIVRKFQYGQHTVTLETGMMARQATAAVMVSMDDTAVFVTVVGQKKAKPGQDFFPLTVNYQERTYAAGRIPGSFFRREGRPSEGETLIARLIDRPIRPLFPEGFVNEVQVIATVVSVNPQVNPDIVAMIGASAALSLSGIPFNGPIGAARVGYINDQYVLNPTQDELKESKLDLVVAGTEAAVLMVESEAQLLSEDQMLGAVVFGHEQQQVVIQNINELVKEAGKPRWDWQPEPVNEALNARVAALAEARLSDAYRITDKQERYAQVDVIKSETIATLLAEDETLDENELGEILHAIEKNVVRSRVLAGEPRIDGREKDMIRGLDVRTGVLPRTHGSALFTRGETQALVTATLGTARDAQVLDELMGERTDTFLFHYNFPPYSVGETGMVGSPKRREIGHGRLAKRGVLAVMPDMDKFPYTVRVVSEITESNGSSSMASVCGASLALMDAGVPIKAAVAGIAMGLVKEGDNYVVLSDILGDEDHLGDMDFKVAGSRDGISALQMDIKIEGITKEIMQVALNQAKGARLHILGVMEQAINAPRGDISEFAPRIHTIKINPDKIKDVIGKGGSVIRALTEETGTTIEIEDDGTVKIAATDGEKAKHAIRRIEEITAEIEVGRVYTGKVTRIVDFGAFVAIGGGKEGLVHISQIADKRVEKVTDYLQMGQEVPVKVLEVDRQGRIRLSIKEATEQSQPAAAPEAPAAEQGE
The data set can be described thus: ITC. Conditions: EMSA: 20 mM Tris pH 7.5, 100 mM NaCl, 1 mM MgCl2, 1 mM DTT, 30 C, 0.2 uM RNA; BLI: same buffer + 1 mg/mL acetylated BSA; ITC: 20 mM Tris-HCl pH 7.5, 1 mM ….

For data set [4], the target named is T1, PNPase. The data set can be described thus: BLI. Particulars: EMSA: 20 mM Tris pH 7.5, 100 mM NaCl, 1 mM MgCl2, 1 mM DTT, 30 C, 0.2 uM RNA; BLI: same buffer + 1 mg/mL acetylated BSA; ITC: 20 mM Tris-HCl pH 7.5, 1 mM ….
Data set [5] addresses T2, PNPase S437-9A (active site mutant) S437A;S438A;S439A (UniProt P05055).
T2 sequence: T1 sequence with S437A, S438A, S439A
The data set can be described thus: BLI. Particulars: EMSA: 20 mM Tris pH 7.5, 100 mM NaCl, 1 mM MgCl2, 1 mM DTT, 30 C, 0.2 uM RNA; BLI: same buffer + 1 mg/mL acetylated BSA; ITC: 20 mM Tris-HCl pH 7.5, 1 mM ….

The target in a further data set is Hfq (UniProt P0A6X3). The data set can be described thus: EMSA. Particulars: EMSA: 20 mM Tris pH 7.5, 100 mM NaCl, 1 mM MgCl2, 1 mM DTT, 30 C, 0.2 uM RNA; BLI: same buffer + 1 mg/mL acetylated BSA; ITC: 20 mM Tris-HCl pH 7.5, 1 mM ….
The target of data set [6] is T1, PNPase. The data set can be described thus: EMSA. Conditions: EMSA: 20 mM Tris pH 7.5, 100 mM NaCl, 1 mM MgCl2, 1 mM DTT, 30 C, 0.2 uM RNA; BLI: same buffer + 1 mg/mL acetylated BSA; ITC: 20 mM Tris-HCl pH 7.5, 1 mM ….
Data set [7] has as its target T2, PNPase S437-9A (active site mutant) S437A;S438A;S439A. The data set can be described thus: EMSA. Particulars: EMSA: 20 mM Tris pH 7.5, 100 mM NaCl, 1 mM MgCl2, 1 mM DTT, 30 C, 0.2 uM RNA; BLI: same buffer + 1 mg/mL acetylated BSA; ITC: 20 mM Tris-HCl pH 7.5, 1 mM ….
Another data set deals with T3, PNPase delta-KH delta-S1 (UniProt P05055).
T3 sequence: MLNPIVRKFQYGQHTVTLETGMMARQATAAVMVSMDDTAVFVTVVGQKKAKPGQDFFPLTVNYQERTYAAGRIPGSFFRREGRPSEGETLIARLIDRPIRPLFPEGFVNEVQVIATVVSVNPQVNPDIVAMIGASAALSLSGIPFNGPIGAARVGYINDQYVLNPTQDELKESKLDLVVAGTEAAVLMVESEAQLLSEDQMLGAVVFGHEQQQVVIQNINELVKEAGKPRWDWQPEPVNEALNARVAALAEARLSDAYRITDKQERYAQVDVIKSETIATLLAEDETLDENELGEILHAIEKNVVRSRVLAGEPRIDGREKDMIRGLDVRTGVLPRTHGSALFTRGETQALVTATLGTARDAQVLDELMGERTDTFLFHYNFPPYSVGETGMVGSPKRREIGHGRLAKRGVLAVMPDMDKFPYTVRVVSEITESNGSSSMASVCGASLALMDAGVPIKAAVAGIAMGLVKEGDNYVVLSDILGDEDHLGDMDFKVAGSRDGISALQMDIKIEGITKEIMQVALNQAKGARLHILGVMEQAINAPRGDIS
The data set can be described thus: EMSA. Conditions: EMSA: 20 mM Tris pH 7.5, 100 mM NaCl, 1 mM MgCl2, 1 mM DTT, 30 C, 0.2 uM RNA; BLI: same buffer + 1 mg/mL acetylated BSA; ITC: 20 mM Tris-HCl pH 7.5, 1 mM ….

For a further data set, the target named is T4, PNPase delta-S1 (UniProt P05055).
T4 sequence: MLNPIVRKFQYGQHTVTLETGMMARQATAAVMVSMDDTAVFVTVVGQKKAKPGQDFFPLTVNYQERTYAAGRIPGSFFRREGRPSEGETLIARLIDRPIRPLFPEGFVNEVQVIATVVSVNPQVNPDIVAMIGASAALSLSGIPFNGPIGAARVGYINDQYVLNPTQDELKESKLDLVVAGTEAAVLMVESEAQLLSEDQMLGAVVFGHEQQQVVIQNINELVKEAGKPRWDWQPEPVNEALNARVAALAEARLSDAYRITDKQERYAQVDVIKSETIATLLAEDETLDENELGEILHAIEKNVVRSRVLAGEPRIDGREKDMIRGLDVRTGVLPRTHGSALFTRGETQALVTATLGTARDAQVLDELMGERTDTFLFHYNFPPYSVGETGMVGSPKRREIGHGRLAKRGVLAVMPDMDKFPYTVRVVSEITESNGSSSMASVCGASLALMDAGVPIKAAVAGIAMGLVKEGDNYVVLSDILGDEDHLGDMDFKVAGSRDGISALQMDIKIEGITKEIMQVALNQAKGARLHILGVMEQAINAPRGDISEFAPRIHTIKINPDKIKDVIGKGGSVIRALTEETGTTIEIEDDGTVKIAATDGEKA
The data set can be described thus: EMSA. Particulars: EMSA: 20 mM Tris pH 7.5, 100 mM NaCl, 1 mM MgCl2, 1 mM DTT, 30 C, 0.2 uM RNA; BLI: same buffer + 1 mg/mL acetylated BSA; ITC: 20 mM Tris-HCl pH 7.5, 1 mM ….

Data set [8] deals with PNPase;Hfq (Escherichia coli K-12 MG1655 derivative?;Escherichia coli?) (UniProt P05055+P0A6X3). The data set can be described thus: EMSA. Particulars: EMSA: 20 mM Tris pH 7.5, 100 mM NaCl, 1 mM MgCl2, 1 mM DTT, 30 C, 0.2 uM RNA; BLI: same buffer + 1 mg/mL acetylated BSA; ITC: 20 mM Tris-HCl pH 7.5, 1 mM ….
The test system of data set [9] is PNPase. The data set can be described thus: ITC. Particulars: no phosphate, 1 mM Mg2+, 30 C, N = 1.01, EMSA: 20 mM Tris pH 7.5, 100 mM NaCl, 1 mM MgCl2, 1 mM DTT, 0.2 uM RNA, BLI: same buffer + 1 mg/mL acetylated …, ITC: 20 mM Tris-HCl pH 7.5, 1 mM MgCl2.

Chain of Hfq (P0A6X3 whole entry): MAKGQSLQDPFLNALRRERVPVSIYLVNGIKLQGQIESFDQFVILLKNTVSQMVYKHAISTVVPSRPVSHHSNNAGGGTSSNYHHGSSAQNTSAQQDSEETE
Chain of PNPase;Hfq (Escherichia coli K-12 MG1655 derivative?;Escherichia coli?) (P0A6X3 whole entry, one chain of several): as the sequence (P0A6X3 whole entry) above

By Kd is commonly meant the equilibrium constant for the complex coming apart. As for 5'-biotin RyhB (9U), the Kd with PNPase [1] came out at 15.8 nM; in [2], 149 nM.
Turning to “GCGAUCAGGAAGACCCUCGCGGAGAACCUGAAAGCACGACAUUGCUCACAUUGCUUCCAGUAUUACUUAGCCAGCCGGGUGCUGGCUUUU [RyhB (4U)]”, the Kd with PNPase [3] was found to be 85 nM.
As to “GCGAUCAGGAAGACCCUCGCGGAGAACCUGAAAGCACGACAUUGCUCACAUUGCUUCCAGUAUUACUUAGCCAGCCGGGUGCUGGCUUUUUUUUU [5'-biotin RyhB (9U)]”, the Kd turned out to be 15.8 nM with PNPase [4] and 149 nM in data set [5].
With “GCGAUCAGGAAGACCCUCGCGGAGAACCUGAAAGCACGACAUUGCUCACAUUGCUUCCAGUAUUACUUAGCCAGCCGGGUGCUGGCUUUUUUUUU [RyhB (9U)]”, the binding result in the data set with Hfq is “binds”; with PNPase [6], “binds”; in [7], “binds more weakly”; in the data set with PNPase delta-KH delta-S1 it was “binds more weakly”; with PNPase delta-S1, “binds more weakly”; in data set [8], “binds”.
“GCUGAAAAACAUAACCCAUAAAAUGCUAGCUGUACCAGGAACCACCUCCUUAGCCUGUGUAAUCUCCCUUACACGGGCUUAUUUUUU [CyaR]”: the binding entry is “binds” with Hfq; “binds” with PNPase [6]; “binds more weakly” in [7]; “binds more weakly” with PNPase delta-S1; “binds” in data set [8].
Turning to RyhB (4U), the Kd in the data set with PNPase [9] was determined as 85 nM.
